From publication PMC5021285
Values joined by “and” are separate entries in the source; they are usually repeats but may differ in a detail not shown here. Equal entries are not always repeated.

Key:
[1] = target: LigB12, tag free (12th Ig-like domain of Leptospira immunoglobulin-like protein B) (Leptospira interrogans serovar Pomona); assay: SPR; Biacore 3000; tag free LigB12 amine-coupled to a CM5 chip (1000 RU); FgαCC truncates 0-3 μM in PBS, 30 μL/min, 25°C; 1:1 Langmuir model
[2] = target: D1066A and E1088A; assay: ELISA; LigB12 WT, mutants or BSA coated (1 μM/well); 5 μM GST-FgαCC8; anti-GST-HRP; relative binding (%) against WT
[3] = target: LigB12 A1065K (Leptospira interrogans serovar Pomona); assay: as above
[4] = target: LigB12 D1061N (Leptospira interrogans serovar Pomona); assay: as above
[5] = target: LigB12 F1054A (Leptospira interrogans serovar Pomona); assay: as above
[6] = target: GST tagged FgαCC8, P02671-2; assay: ELISA; conditions: 5 μM GST tagged FgαCC8 added to coated wells (1 μM/well); parent: est. 100; read off a plot
[7] = target: Factor XIII (FXIII) (UniProt P00488); assay: ELISA; FXIII, FgαCC8 (positive control) or BSA coated; GST-LigB12 0-3 μM; anti-GST-HRP
[8] = target: FgαCC8 H614A (human) (UniProt P02671); assay: ELISA; FgαCC8 WT, alanine mutants or BSA coated (1 μM/well); 5 μM GST-LigB12; anti-GST-HRP; relative binding (%) against WT
[9] = target: FgαCC8 I613A (human) (UniProt P02671); assay: as above
[10] = target: FgαCC8 L618A (human) (UniProt P02671); assay: as above
[11] = target: FgαCC8 R608A (human) (UniProt P02671); assay: as above
[12] = target: FgαCC8 R611A (human) (UniProt P02671); assay: as above
[13] = target: His-Sumo tagged FgαCC8 (human) (UniProt P02671); assay: ELISA; His-Sumo FgαCC8 captured by coated anti-His antibody; GST-LigB12 0-5 μM in phosphate buffer pH 6, 75 mM NaCl; anti-GST-HRP
[14] = target: His-Sumo tagged FgαCC8 (human) (UniProt P02671); assay: ELISA; His-Sumo FgαCC8 captured by coated anti-His antibody; GST-LigB12 0-5 μM in phosphate buffer pH 7, 75 mM NaCl; anti-GST-HRP
[15] = target: His-Sumo tagged FgαCC8 (human) (UniProt P02671); assay: ELISA; His-Sumo FgαCC8 captured by coated anti-His antibody; GST-LigB12 0-5 μM in phosphate buffer pH 5, 150 mM NaCl; anti-GST-HRP
[16] = target: His-Sumo tagged FgαCC8 (human) (UniProt P02671); assay: ELISA; His-Sumo FgαCC8 captured by coated anti-His antibody; GST-LigB12 0-5 μM in phosphate buffer pH 6, 150 mM NaCl; anti-GST-HRP
[17] = target: His-Sumo tagged FgαCC8 (human) (UniProt P02671); assay: ELISA; His-Sumo FgαCC8 captured by coated anti-His antibody; GST-LigB12 0-5 μM in phosphate buffer pH 6, 1200 mM NaCl; anti-GST-HRP
[18] = target: His-Sumo tagged FgαCC8 (human) (UniProt P02671); assay: ELISA; His-Sumo FgαCC8 captured by coated anti-His antibody; GST-LigB12 0-5 μM in phosphate buffer pH 7, 1200 mM NaCl; anti-GST-HRP
[19] = target: FgαCC (C-terminal region of the fibrinogen αC domain) (human) (UniProt P02671); assay: ELISA; 1 μM FgαCC, FgαCC truncates or BSA coated on microtiter wells; GST-LigB12 0-3 μM, 1 h 37°C; anti-GST-HRP; KD = EC50 of a dose-response fit
[20] = target: FgαCC2 (human) (UniProt P02671); assay: as above
[21] = target: FgαCC3 (human) (UniProt P02671); assay: as above
[22] = target: FgαCC5 (human) (UniProt P02671); assay: as above
[23] = target: FgαCC8 (C-terminal 23 amino acids of the fibrinogen α chain) (human) (UniProt P02671); assay: as above
[24] = target: His-Sumo tagged FgαCC8 (human) (UniProt P02671); assay: ELISA; His-Sumo FgαCC8 captured by coated anti-His antibody; GST-LigB12 0-5 μM in phosphate buffer pH 7, 150 mM NaCl; anti-GST-HRP (Fig 5A and Fig 5B)
[25] = target: Factor XIII (FXIII) (UniProt P00488); assay: ELISA; inhibition: FXIII coated; tag free LigB12 or LigB4 0-10 μM, 1 h 37°C, unbound washed off; then 1 μM His-Sumo FgαCC, 1 h 37°C; anti-His-HRP; binding relative to wells without LigB
[26] = target: T1, GST tagged LigB12 (12th Ig-like domain of Leptospira immunoglobulin-like protein B); assay: ELISA; conditions: chain shown with the change; 5 μM GST tagged LigB12 added to coated wells (1 μM/well); parent: est. 100; read off a plot
T1 chain: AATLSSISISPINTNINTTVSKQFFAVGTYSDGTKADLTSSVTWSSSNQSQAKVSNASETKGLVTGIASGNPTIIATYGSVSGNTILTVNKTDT

UniProt P00488, sequence (P00488 whole entry, chain 1 of 2, the tested form may be a part): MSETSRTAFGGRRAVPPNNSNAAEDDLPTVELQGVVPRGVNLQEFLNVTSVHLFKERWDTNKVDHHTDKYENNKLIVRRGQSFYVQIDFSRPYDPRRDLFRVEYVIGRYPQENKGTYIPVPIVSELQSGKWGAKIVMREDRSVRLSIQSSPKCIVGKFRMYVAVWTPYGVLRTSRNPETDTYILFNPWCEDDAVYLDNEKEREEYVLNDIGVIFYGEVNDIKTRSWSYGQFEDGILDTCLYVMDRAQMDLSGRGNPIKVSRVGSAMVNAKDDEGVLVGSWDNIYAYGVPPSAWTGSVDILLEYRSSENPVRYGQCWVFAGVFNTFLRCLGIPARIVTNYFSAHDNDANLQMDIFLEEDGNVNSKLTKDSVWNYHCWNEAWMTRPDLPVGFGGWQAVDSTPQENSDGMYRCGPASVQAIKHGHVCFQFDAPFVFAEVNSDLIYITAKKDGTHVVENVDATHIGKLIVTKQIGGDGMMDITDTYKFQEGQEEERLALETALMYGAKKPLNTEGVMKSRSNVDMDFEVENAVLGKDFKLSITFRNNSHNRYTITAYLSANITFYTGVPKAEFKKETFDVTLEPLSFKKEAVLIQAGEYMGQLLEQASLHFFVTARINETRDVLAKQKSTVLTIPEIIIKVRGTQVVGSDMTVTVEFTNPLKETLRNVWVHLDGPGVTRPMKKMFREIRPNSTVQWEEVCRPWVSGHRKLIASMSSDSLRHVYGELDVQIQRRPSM
UniProt P00488, sequence (P05160 21-661, chain 2 of 2, further chain): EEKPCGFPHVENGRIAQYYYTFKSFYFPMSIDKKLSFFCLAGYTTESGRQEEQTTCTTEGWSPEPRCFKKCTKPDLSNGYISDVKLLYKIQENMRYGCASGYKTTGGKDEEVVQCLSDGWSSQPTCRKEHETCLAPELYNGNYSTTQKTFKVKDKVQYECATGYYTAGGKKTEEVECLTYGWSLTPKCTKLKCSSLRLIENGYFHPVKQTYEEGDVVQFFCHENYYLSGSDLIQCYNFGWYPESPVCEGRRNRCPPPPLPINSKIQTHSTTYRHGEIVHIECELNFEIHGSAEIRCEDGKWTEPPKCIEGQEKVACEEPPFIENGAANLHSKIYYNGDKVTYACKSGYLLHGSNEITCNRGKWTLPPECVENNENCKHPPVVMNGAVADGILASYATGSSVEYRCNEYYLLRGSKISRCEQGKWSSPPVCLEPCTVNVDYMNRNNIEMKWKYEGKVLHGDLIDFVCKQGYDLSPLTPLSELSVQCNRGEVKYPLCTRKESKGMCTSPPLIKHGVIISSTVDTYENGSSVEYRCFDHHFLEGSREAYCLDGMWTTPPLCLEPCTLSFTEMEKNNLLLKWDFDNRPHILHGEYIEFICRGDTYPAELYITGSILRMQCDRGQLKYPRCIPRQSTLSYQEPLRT

## FgαCC3 (from UniProt P02671-2 526-644) (domain or fragment)
[1]
  Kd: 704 nM
  koff: 0.0339 s⁻¹
  kon: 48100 M⁻¹ s⁻¹

## GST tagged FgαCC8 (from UniProt P02671-2 622-644) (domain or fragment)
[2]
  percent reduction of binding relative to WT: 10 to 12%
[3]
  percent reduction of binding relative to WT: 46%
[4]
  percent reduction of binding relative to WT: > 30%
[5]
  percent reduction of binding relative to WT: 51%

## LigB12, tag free (12th Ig-like domain of Leptospira immunoglobulin-like protein B) P1040C; F1053C
[6]
  percent of parent: 96 % of WT

## GST tagged LigB12 (12th Ig-like domain of Leptospira immunoglobulin-like protein B) (domain or fragment)
[7]
  Kd: 150 nM
[8]
  percent reduction of binding relative to WT: 50%
[9]
  percent reduction of binding relative to WT: 47%
[10]
  percent reduction of binding relative to WT: 12%
[11]
  percent reduction of binding relative to WT: > 60%
[12]
  percent reduction of binding relative to WT: > 60%
[13]
  Kd: 1290 nM
[14]
  Kd: 460 nM
[15]
  Kd: 1830 nM
[16]
  Kd: 470 nM
[17]
  Kd: 220 nM
[18]
  Kd: 6610 nM
[19]
  Kd: 370 nM
[20]
  fold over the negative control (BSA) at 3 μM LigB12: 2.5 fold
[21]
  Kd: 510 nM
[22]
  Kd: 580 nM
[23]
  Kd: 760 nM
[24]
  Kd: 820 nM and 620 nM

## LigB12, tag free (12th Ig-like domain of Leptospira immunoglobulin-like protein B) (domain or fragment)
[25]
  percent reduction of FgαCC binding to FXIII at high LigB12 concentrations (fit of the dose inhibition curve): 56.7%

## FgαCC8 (C-terminal 23 amino acids of the fibrinogen α chain) (from UniProt P02671-2 622-644) (domain or fragment)
[1]
  Kd: 959 nM
  koff: 0.0357 s⁻¹
  kon: 37200 M⁻¹ s⁻¹

## LigB12, tag free (12th Ig-like domain of Leptospira immunoglobulin-like protein B) E1088A
[6]
  percent of parent: 90 % of WT

## LigB12, tag free (12th Ig-like domain of Leptospira immunoglobulin-like protein B) D1066A
[6]
  percent of parent: 88 % of WT

## FgαCC5 (from UniProt P02671-2 579-644) (domain or fragment)
[1]
  Kd: 1040 nM
  koff: 0.0384 s⁻¹
  kon: 36900 M⁻¹ s⁻¹

## GHAASRPVRGIHTSPLGKPSLSP [FgαCC8 (C-terminal 23 amino acids of the fibrinogen α chain), P02671-2 K606A]
[26]
  percent of parent: 78 % of WT

## MADEAGSEADHEGTHSTARGHAK [FgαCC8 (C-terminal 23 amino acids of the fibrinogen α chain), P02671-2 K620A]
[26]
  percent of parent: 77 % of WT

## GHAKSRPARGIHTSPLGKPSLSP [FgαCC8 (C-terminal 23 amino acids of the fibrinogen α chain), P02671-2 V610A]
[26]
  percent of parent: 99 % of WT
